From publication PMC3996161

Molecular target: DraIII restriction endonuclease (Deinococcus radiophilus ATCC 27603)
Assay: crystal structure; DraIII incubated 1:1 with an 11-bp phosphorothioate canonical DNA duplex, SEC with 5 mmol/L MgCl2; crystals at 18°C, hanging drop, 0.1 mol/L Tris-Cl, 20% 2-propanol, 5% PEG 8000, pH 8.0; the DNA was not observed in the structure

DraIII restriction endonuclease (enzyme)
stoichiometry N: 2
